Here are results for 9 molecules from US20130236458A1 (AbbVie / Abbott, published 2013).

Assay [1] concerns the target T1, Recombinant Human IL-13 (human, UniProt P35225 35-146, limits assumed).
T1 construct: bought reagent
Put plainly: SPR (Biacore). The procedure, abridged:
(§1)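 Antibodies or DVD-Ig captured on anti-mouse IgG (Fcγ) CM5 surface; antigen injected at 10–200 nM in HBS-EP, pH 7.4, 25 °C, 25 µL/min. kon and koff from global 1:1 Langmuir fit; KD = koff/kon.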
(SPR reads the build-up and loss of mass on a sensor chip optically.)

Assay [2] has as its target T2, Recombinant Human IL-17 (human, UniProt Q16552 20-155, limits assumed).
T2 construct: bought reagent; also called IL-17A
T2 sequence (looked up): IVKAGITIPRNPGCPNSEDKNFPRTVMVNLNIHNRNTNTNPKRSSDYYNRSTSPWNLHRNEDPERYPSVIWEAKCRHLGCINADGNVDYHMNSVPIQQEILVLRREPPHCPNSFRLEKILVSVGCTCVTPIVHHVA
As to the kind of experiment: SPR (Biacore). A digest of the protocol: as §1

Assay [3] addresses T1, Recombinant Human IL-13. As to the kind of experiment: cell-based or functional assay.
Assay [4] has as its target T2, Recombinant Human IL-17. Put plainly: cell-based or functional assay.

Substitutions are numbered along the chain they refer to.

T1 sequence (P35225 35-146 limits assumed): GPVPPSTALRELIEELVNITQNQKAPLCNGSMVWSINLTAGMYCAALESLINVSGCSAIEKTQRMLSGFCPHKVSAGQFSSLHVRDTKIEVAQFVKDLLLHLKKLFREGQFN

B1: DVD2177 (bispecific antibody)
VH: EVQLVQSGAEVKKPGSSVKVSCKASGGSFGGYGIGWVRQAPGQGLEWMGGITPFFGFADYAQKFQGRVTITADESTTTAYMELSGLTSDDTAVYYCARDPNEFWNGYYSTHDFDSWGQGTTVTVSSASTKGPSVFPLAPEVQLVQSGAEVKKPGASVKVSCKASGYTFTTYGVSWVRQAPGQGLEWMGEIYPGNYNTYYNEKFRGRVTMTTDTSTSTAYMELRSLRSDDTAVYYCARWRTSYFSDYGYFDYWGQGTTVTVSS
VL: EIVLTQSPDFQSVTPKEKVTITCRASQDIGSELHWYQQKPDQPPKLLIKYASHSTSGVPSRFSGSGSGTDFTLTINGLEAEDAGTYYCHQTDSLPYTFGPGTKVDIKRTVAAPDVVMTQSPLSLPVTLGQPASISCRSSQSLVHSHGNTYLHWYQQRPGQSPRLLIYTVSNRFSGVPDRFSGSGSGTDFTLKISRVEAEDVGVYYCSQSTHVPYTFGGGTKVEIKR
notes: DVD-Ig; also called DVD2177H; DVD2177L
Take B1: in the assay with Recombinant Human IL-13 [1], the Kd was under 9.1 pM, the koff was under 1e-06 s⁻¹ and the association rate constant (kon) is 110000 M⁻¹ s⁻¹. Further, in the assay with Recombinant Human IL-17 [2], the dissociation constant Kd is at most 4.3 pM, the koff was at most 1e-05 s⁻¹ and the kon amounted to 2.5e+06 M⁻¹ s⁻¹. The “C-Terminal VD IL13 Neutralization Assay IC50” value in the assay with Recombinant Human IL-13 [3] was found to be 155 pM. The “N-Terminal VD IL17 Neutralization Assay IC50” value in the assay with Recombinant Human IL-17 [4] was found to be 10.1 pM.

B2: DVD2179 (bispecific antibody)
VH: EVQLVQSGAEVKKPGESVKISCKASGGSFRSYGISWVRQAPGQGLEWMGGITHFFGITDYAQKFQGRVTITADESTTTAYMELSGLTSDDTAVYYCAREPNDFWNGYYDTHDFDSWGQGTTVTVSSASTKGPEVQLVQSGAEVKKPGASVKVSCKASGYTFTTYGVSWVRQAPGQGLEWMGEIYPGNYNTYYNEKFRGRVTMTTDTSTSTAYMELRSLRSDDTAVYYCARWRTSYFSDYGYFDYWGQGTTVTVSS
VL: B1 VL with D28N, P43S, T55I, G84A, T91S, S93T, Y96H, P100Q
notes: DVD-Ig; also called DVD2179H; DVD2179L
Turning to B2, in the assay with Recombinant Human IL-13 [1], the Kd was at most 3.6 pM, the off-rate constant (koff) was at most 1e-06 s⁻¹ and the association rate constant (kon) came out at 280000 M⁻¹ s⁻¹. Also, in the assay with Recombinant Human IL-17 [2], the equilibrium dissociation constant (Kd) is 39 pM, the dissociation rate constant (koff) is 6.4e-05 s⁻¹ and the on-rate constant (kon) amounted to 1.7e+06 M⁻¹ s⁻¹. Moreover, the “C-Terminal VD IL13 Neutralization Assay IC50” value with Recombinant Human IL-13 [3] came to 916 pM. Also, the “N-Terminal VD IL17 Neutralization Assay IC50” value with Recombinant Human IL-17 [4] turned out to be 9.7 pM.

B3: DVD2183 (bispecific antibody)
VH: EVQLVQSGAEVKKPGESVKISCKASGGSFRSYGISWVRQAPGQGLEWMGGITHFFGITDYAQKFQGRVTITADESTTTAYMELSGLTSDDTAVYYCAREPNDFWNGYYDTHDFDSWGQGTTVTVSSASTKGPSVFPLAPEVQLVQSGAEVKKPGASVKVSCKASGYTFTTYGVSWVRQAPGQGLEWMGEIYPGNYNTYYNEKFRGRVTMTTDTSTSTAYMELRSLRSDDTAVYYCARWRTSYFSDYGYFDYWGQGTTVTVSS
VL: B1 VL with D28N, P43S, T55I, G84A, T91S, S93T, Y96H, P100Q
notes: DVD-Ig; also called DVD2183H; DVD2183L
On to B3, for which, in the assay with Recombinant Human IL-13 [1], the Kd is under 4.2 pM, the koff is under 1e-06 s⁻¹ and the kon was found to be 240000 M⁻¹ s⁻¹. In the assay with Recombinant Human IL-17 [2], the Kd turned out to be 15 pM, the off-rate constant (koff) is 3.6e-05 s⁻¹ and the on-rate constant (kon) stood at 2.3e+06 M⁻¹ s⁻¹. Moreover, the “C-Terminal VD IL13 Neutralization Assay IC50” value in the assay with Recombinant Human IL-13 [3] came to 86 pM. For the same molecule, in the assay with Recombinant Human IL-17 [4], the “N-Terminal VD IL17 Neutralization Assay IC50” value was found to be 12.5 pM.

B4: DVD2175 (bispecific antibody)
VH: EVQLVQSGAEVKKPGSSVKVSCKASGGSFGGYGIGWVRQAPGQGLEWMGGITPFFGFADYAQKFQGRVTITADESTTTAYMELSGLTSDDTAVYYCARDPNEFWNGYYSTHDFDSWGQGTTVTVSSASTKGPEVQLVQSGAEVKKPGASVKVSCKASGYTFTTYGVSWVRQAPGQGLEWMGEIYPGNYNTYYNEKFRGRVTMTTDTSTSTAYMELRSLRSDDTAVYYCARWRTSYFSDYGYFDYWGQGTTVTVSS
VL: EIVLTQSPDFQSVTPKEKVTITCRASQDIGSELHWYQQKPDQPPKLLIKYASHSTSGVPSRFSGSGSGTDFTLTINGLEAEDAGTYYCHQTDSLPYTFGPGTKVDIKRTVAAPSVFIFPPDVVMTQSPLSLPVTLGQPASISCRSSQSLVHSHGNTYLHWYQQRPGQSPRLLIYTVSNRFSGVPDRFSGSGSGTDFTLKISRVEAEDVGVYYCSQSTHVPYTFGGGTKVEIKR
notes: DVD-Ig; also called DVD2175H; DVD2175L
Take B4: in the assay with Recombinant Human IL-13 [1], the Kd is under 19 pM, the off-rate (koff) was under 1e-06 s⁻¹ and the kon is 52000 M⁻¹ s⁻¹. Moreover, in the assay with Recombinant Human IL-17 [2], the Kd was 2.1 pM, the koff was determined as 5.4e-06 s⁻¹ and the on-rate constant (kon) worked out at 2.7e+06 M⁻¹ s⁻¹. Also, in the assay with Recombinant Human IL-13 [3], the “C-Terminal VD IL13 Neutralization Assay IC50” value was found to be 115 pM. Also, the “N-Terminal VD IL17 Neutralization Assay IC50” value in the assay with Recombinant Human IL-17 [4] came to 8.9 pM.

B5: DVD2181 (bispecific antibody)
VH: B2 VH
VL: B4 VL with D28N, P43S, T55I, G84A, T91S, S93T, Y96H, P100Q
notes: DVD-Ig; also called DVD2181H; DVD2181L
B5: in the assay with Recombinant Human IL-13 [1], the Kd was under 12 pM, the koff was under 1e-06 s⁻¹ and the kon stood at 82000 M⁻¹ s⁻¹. In the assay with Recombinant Human IL-17 [2], the Kd was determined as 16 pM, the koff is 4.2e-05 s⁻¹ and the kon was 2.6e+06 M⁻¹ s⁻¹. For the same molecule, the “C-Terminal VD IL13 Neutralization Assay IC50” value with Recombinant Human IL-13 [3] stood at 40 pM. In addition, the “N-Terminal VD IL17 Neutralization Assay IC50” value with Recombinant Human IL-17 [4] was 9.7 pM.

B6: DVD2185 (bispecific antibody)
VH: EVQLVQSGAEVKKPGSSVKVSCKASGYTFTDYEIHWVRQAPGQGLEWMGVNDPESGGTFYNQKFDGRVTLTADESTSTAYMELSSLRSEDTAVYYCTRYSKWDSFDGMDYWGQGTTVTVSSASTKGPEVQLVQSGAEVKKPGASVKVSCKASGYTFTSYWMHWVRQAPGQGLEWIGNINPKGGSNIYNEKFQGRVTMTRDTSISTAYMELSRLRSDDTAVYYCARLDYFGDSFDLWGQGTTVTVSS
VL: DIQMTQSPSSLSASVGDRVTITCRASSGIISYIDWFQQKPGKAPKRLIYATFDLASGVPSRFSGSGSGTDYTLTISSLQPEDFATYYCRQVGSYPETFGQGTKLEIKRTVAAPDIQMTQSPSSLSASVGDRVTITCRASQGIRNYLNWYQQKPGKAPKLLIYYASNLEVGVPSRFSGSGSGTDYTLTISSLQPEDFATYYCQQDNRFPYTFGGGTKVEIKR
notes: DVD-Ig; also called DVD2185H; DVD2185L
For B6, in the assay with Recombinant Human IL-13 [1], the equilibrium dissociation constant (Kd) was under 9.1 pM, the koff was under 1e-06 s⁻¹ and the kon stood at 110000 M⁻¹ s⁻¹. Besides, in the assay with Recombinant Human IL-17 [2], the equilibrium dissociation constant (Kd) came out at 8.9 pM, the off-rate constant (koff) is 1.5e-05 s⁻¹ and the kon was found to be 1.7e+06 M⁻¹ s⁻¹. Also, in the assay with Recombinant Human IL-13 [3], the “C-Terminal VD IL13 Neutralization Assay IC50” value amounted to 1250 pM. Further, in the assay with Recombinant Human IL-17 [4], the “N-Terminal VD IL17 Neutralization Assay IC50” value was found to be 1.3 pM.

B7: DVD2189 (bispecific antibody)
VH: EVQLVQSGAEVKKPGSSVKVSCKASGYTFTDYEIHWVRQAPGQGLEWMGVNDPESGGTFYNQKFDGRVTLTADESTSTAYMELSSLRSEDTAVYYCTRYSKWDSFDGMDYWGQGTTVTVSSASTKGPSVFPLAPEVQLVQSGAEVKKPGASVKVSCKASGYTFTSYWMHWVRQAPGQGLEWIGNINPKGGSNIYNEKFQGRVTMTRDTSISTAYMELSRLRSDDTAVYYCARLDYFGDSFDLWGQGTTVTVSS
VL: B6 VL
notes: DVD-Ig; also called DVD2189H; DVD2189L
Regarding B7, in the assay with Recombinant Human IL-13 [1], the Kd was 94 pM, the koff turned out to be 3.9e-05 s⁻¹ and the kon came out at 410000 M⁻¹ s⁻¹. Further, in the assay with Recombinant Human IL-17 [2], the Kd is under 0.4 pM, the koff was under 1e-06 s⁻¹ and the association rate constant (kon) worked out at 2.5e+06 M⁻¹ s⁻¹. Besides, in the assay with Recombinant Human IL-13 [3], the “C-Terminal VD IL13 Neutralization Assay IC50” value was determined as 172 pM. In addition, the “N-Terminal VD IL17 Neutralization Assay IC50” value in the assay with Recombinant Human IL-17 [4] came out at 1.7 pM.

B8: DVD2187 (bispecific antibody)
VH: B6 VH
VL: DIQMTQSPSSLSASVGDRVTITCRASSGIISYIDWFQQKPGKAPKRLIYATFDLASGVPSRFSGSGSGTDYTLTISSLQPEDFATYYCRQVGSYPETFGQGTKLEIKRTVAAPSVFIFPPDIQMTQSPSSLSASVGDRVTITCRASQGIRNYLNWYQQKPGKAPKLLIYYASNLEVGVPSRFSGSGSGTDYTLTISSLQPEDFATYYCQQDNRFPYTFGGGTKVEIKR
notes: DVD-Ig; also called DVD2187H; DVD2187L
As for B8, in the assay with Recombinant Human IL-13 [1], the dissociation constant Kd is 72 pM, the koff is 2.1e-05 s⁻¹ and the on-rate (kon) worked out at 290000 M⁻¹ s⁻¹. Besides, in the assay with Recombinant Human IL-17 [2], the Kd was under 0.38 pM, the off-rate (koff) is under 1e-06 s⁻¹ and the on-rate (kon) amounted to 2.6e+06 M⁻¹ s⁻¹. The “C-Terminal VD IL13 Neutralization Assay IC50” value in the assay with Recombinant Human IL-13 [3] is 811 pM. Further, in the assay with Recombinant Human IL-17 [4], the “N-Terminal VD IL17 Neutralization Assay IC50” value was determined as 1.6 pM.

B9: DVD2174 (bispecific antibody)
VH: EVQLVQSGAEVKKPGASVKVSCKASGYTFTTYGVSWVRQAPGQGLEWMGEIYPGNYNTYYNEKFRGRVTMTTDTSTSTAYMELRSLRSDDTAVYYCARWRTSYFSDYGYFDYWGQGTTVTVSSASTKGPEVQLVQSGAEVKKPGSSVKVSCKASGGSFGGYGIGWVRQAPGQGLEWMGGITPFFGFADYAQKFQGRVTITADESTTTAYMELSGLTSDDTAVYYCARDPNEFWNGYYSTHDFDSWGQGTTVTVSS
VL: DVVMTQSPLSLPVTLGQPASISCRSSQSLVHSHGNTYLHWYQQRPGQSPRLLIYTVSNRFSGVPDRFSGSGSGTDFTLKISRVEAEDVGVYYCSQSTHVPYTFGGGTKVEIKRTVAAPSVFIFPPEIVLTQSPDFQSVTPKEKVTITCRASQDIGSELHWYQQKPDQPPKLLIKYASHSTSGVPSRFSGSGSGTDFTLTINGLEAEDAGTYYCHQTDSLPYTFGPGTKVDIKR
notes: DVD-Ig; also called DVD2174H; DVD2174L
Turning to B9, in the assay with Recombinant Human IL-13 [1], the Kd is 36 pM, the koff worked out at 2.8e-05 s⁻¹ and the kon was determined as 790000 M⁻¹ s⁻¹. In the assay with Recombinant Human IL-17 [2], the equilibrium dissociation constant (Kd) worked out at 98 pM, the off-rate (koff) was determined as 1.8e-05 s⁻¹ and the on-rate constant (kon) is 180000 M⁻¹ s⁻¹. Besides, in the assay with Recombinant Human IL-13 [3], the “N-Terminal VD IL13 Neutralization Assay IC50” value is 85 pM. Also, the “C-Terminal VD IL17 Neutralization Assay IC50” value with Recombinant Human IL-17 [4] turned out to be 12.6 pM.

What is called Kd is the constant that tells how readily two partners part at equilibrium. As a reminder, the koff is a measure of how fast the partners let go of each other. The term kon denotes a measure of how fast the partners come together.
